This test addresses HLA-A*0201 (HLA-A2.1) (Homo sapiens, UniProt P04439, D140Y/D185E/D98H/E176V/E277Q/G131W/G231S/I119V/I121R/I166T/I218V/L300P/L318F/N151K/N90K/P208A/P217A/Q86G/Q94H/R138H/R169H/T345S). The test can be described thus: biochemical. In kind it is binding.

pIC50: −log10 of the molar value. No end group written: not given here.

With LAETSYVKV, the “binding to HLA-A2.1 (column 3; no allele head shown for these rows)” value turned out to be 0.
As for PQSPQGASA, the A2.1 is recorded as <0.0002.
For MIAMEGGHA, the “binding to HLA-A2.1 (column 3; no allele head shown for these rows)” value stood at 0.0005.
Same read-out and setting: the result for AVITKKVA reads 0; that for DLVQEKYLEYRQV, 0.
In turn, CLGLSYDGLL returned an A2.1 of 0.
Still for that read-out and setting: then VITKKVADL, with <0.0003.
Turning to VLGTLEEVPT, the “binding to HLA-A2.1 (column 3; no allele head shown for these rows)” value was 0.0004.
On the same count and under the same terms, then VLEYVIKVSA, with 0.0002.
Turning to PKTGFLIIV, the A2.1 is reported as <0.0002.
As to QAALSRKVA, the “binding to HLA-A2.1 (column 3; no allele head shown for these rows)” value is given as 0.
Same read-out and setting: then PTGHSYVLVT, with 0.
Still for that read-out and setting: then SLFRAVITKKVADLV, with 0.0004.
The substance VITKKVADLV came in with an A2.1 of 0.
As for EADPTGHSYV, the “binding to HLA-A2.1 (column 3; no allele head shown for these rows)” value is 0.
On the same count and under the same terms, then KAEMLGSVV, with 0.
Same read-out and setting: then VVEVVPISHL, with <0.0002; and KTGFLIIVL, with 0.0006.
Substance KLLTQDLV came in with an A2.1 of 0.0004.
In the case of BLLAKTBPV [Peptide 1329.15], the “A*0201” value is listed as 0.1100.
Substance DLVGFLLL gave an A2.1 of 0.
Take SESLQLVFGI: the “binding to HLA-A2.1 (column 3; no allele head shown for these rows)” value is given as 0.
For AVITKKVADLV, the “binding to HLA-A2.1 (column 3; no allele head shown for these rows)” value was determined as 0.
For the substance GLSYDGLL, the A2.1 came out at 0.0001.
As for KAGLLIIVLA, the “binding to HLA-A2.1 (column 3; no allele head shown for these rows)” value is <0.0002.
As for PLVLGTLEE, the A2.1 is listed as <0.0002.
Regarding PTGHSYVLV, the “binding to HLA-A2.1 (column 3; no allele head shown for these rows)” value came out at 0.
Same read-out and setting: then GVQGPSLKPAM, with 0.
In turn, EIFGKASESL returned an A2.1 of 0.
Turning to PIGHLYIFA, the “binding to HLA-A2.1 (column 3; no allele head shown for these rows)” value is 0.
SLHCKPEEAL: the A2.1 is on record as 0.0002.
Still for that read-out and setting: the result for YIFATCLGL reads 0.018.
As to KTGFLIIVLV, the “binding to HLA-A2.1 (column 3; no allele head shown for these rows)” value is given as 0.0012.
With VQEKYLEYG, the A2.1 is <0.0002.
The substance AVITKKVADL had an A2.1 of 0.
As to EALGLVCVQA, the “binding to HLA-A2.1 (column 3; no allele head shown for these rows)” value is given as 0.0005.
Take DLESEFQAAI: the “binding to HLA-A2.1 (column 3; no allele head shown for these rows)” value stood at 0.
Take YMIMVKBWMI [Peptide 1334.04]: the “A*0201” value is 0.2700.
Still for that read-out and setting: the result for YLCNSSCMGGV [Peptide 1323.31] reads 0.2300.
Consider IVLVMIAM, for which the “binding to HLA-A2.1 (column 3; no allele head shown for these rows)” value is listed as 0.0001.
With VTCLGLSYD, the A2.1 is recorded as <0.0002.
Substance FLIIVLVM registered an A2.1 of 0.
As for ALNKMFBQV [Peptide 1323.04], the “A*0201” value is reported as 0.0260.
Take KASESLQLV: the “binding to HLA-A2.1 (column 3; no allele head shown for these rows)” value was determined as 0.0009.
The same measure, in the same setting: the result for ATSSSSPLV reads 0.0007.
For the substance GREHSAYGE, the A2.1 was <0.0002.
The same measure, in the same setting: then RCRTVIPHA, with <0.0002.
With AALREEEEGV, the “binding to HLA-A2.1 (column 3; no allele head shown for these rows)” value is reported as 0.
Same read-out and setting: then YVKVLEYVI, with 0.0002.
As to PLVLGTLEEV, the A2.1 came out at 0.0008.
With YLEYGRCRT, the “binding to HLA-A2.1 (column 3; no allele head shown for these rows)” value is on record as 0.
For GLSYDGLLV, the “binding to HLA-A2.1 (column 3; no allele head shown for these rows)” value came out at 0.0047.
On the same count and under the same terms, the result for ALEAQQEALGL reads 0.0001.
The substance QIMPKTGFL showed an A2.1 of 0.0007.
As to BLTIHYNYV [Peptide 1323.08], the “A*0201” value is 0.0430.
Turning to SLRVLAAGL, the A2.1 stood at 0.0001.
The same measure, in the same setting: then LLKYRAREPV, with 0; and LVMIAMEGG, with <0.0002.
On the same count and under the same terms, the result for VPTAGSTDP reads <0.0002.
Take AATSSSSPLV: the “binding to HLA-A2.1 (column 3; no allele head shown for these rows)” value was determined as 0.
CILESLFRAV came in with an A2.1 of 0.0003.
The same measure, in the same setting: the result for DLQQSLRVL reads 0.
As to DLESEFQAA, the “binding to HLA-A2.1 (column 3; no allele head shown for these rows)” value turned out to be 0.
Same read-out and setting: then LIIVLVMI, with 0.0001; and MLGSVVGNWQYFFPV, with 0.012.
Turning to QIMPKAGLL, the A2.1 amounted to 0.
For LIIVLVMIAM, the “binding to HLA-A2.1 (column 3; no allele head shown for these rows)” value stood at 0.0003.
The same measure, in the same setting: then VTKAEMLGSV, with <0.0002.
Turning to YLIMVKBWMV [Peptide 1334.05], the “A*0201” value was 0.6900.
With ATSSSSPLVL, the “binding to HLA-A2.1 (column 3; no allele head shown for these rows)” value is 0.
Take GVQGPSLKPA: the A2.1 came out at 0.0001.
Still for that read-out and setting: the result for ALEAQQEA reads 0; that for VQAATSSSS, <0.0002.
As to VLGTLEEVPTA, the “binding to HLA-A2.1 (column 3; no allele head shown for these rows)” value came out at 0.0002.
In the case of LLSRDLQQSL, the A2.1 is given as 0.0007.
Take IIAIEGDCA: the “binding to HLA-A2.1 (column 3; no allele head shown for these rows)” value stood at 0.
The same measure, in the same setting: the result for KTGLLIIVLA reads <0.0002.
As for AMBRWGLLV [Peptide 1334.08], the “A*0201” value is reported as 0.1400.
On to FPTTINFTR, for which the A2.1 is given as <0.0002.
As for 11546 (SLLPAIVEL) [Peptide 11546], the “A2.1 Binding” value is recorded as 0.19.
Turning to KLPGLLSRDL, the A2.1 is on record as 0.
In the case of SLFRAVITKKV, the “binding to HLA-A2.1 (column 3; no allele head shown for these rows)” value was 0.0001.
TLEEVPTA registered an A2.1 of 0.
For the substance EAQQEALGLV, the “binding to HLA-A2.1 (column 3; no allele head shown for these rows)” value came to 0.
Consider PVTKAEML, for which the A2.1 amounted to 0.
Same read-out and setting: the result for QQEALGLVC reads <0.0002.
Consider QAAISRKMV, for which the “binding to HLA-A2.1 (column 3; no allele head shown for these rows)” value worked out at 0.
Regarding KASEYLQLV, the “binding to HLA-A2.1 (column 3; no allele head shown for these rows)” value was determined as 0.011.
Substance AISRKMVELV returned an A2.1 of 0.
For VTKAEMLESV, the “binding to HLA-A2.1 (column 3; no allele head shown for these rows)” value turned out to be 0.
FLIIVLVMI: the A2.1 is given as 0.0005.
Same read-out and setting: then DLVQEKYL, with 0.
As to QVMPKTGLL, the “binding to HLA-A2.1 (column 3; no allele head shown for these rows)” value is 0.
Still for that read-out and setting: the result for EVVPISHLYI reads <0.0002.
Take EALEAQQEA: the “binding to HLA-A2.1 (column 3; no allele head shown for these rows)” value is reported as 0.
The same measure, in the same setting: the result for PVTKAEMLESV reads 0.
The substance LLGDNQIM gave an A2.1 of 0.
On to EIWEELSV, for which the “binding to HLA-A2.1 (column 3; no allele head shown for these rows)” value is 0.
Same read-out and setting: then LVMIAMEGGHA, with 0.0005; and SAFPTTINFT, with 0.
On to BQLAKTBPV [Peptide 1329.14], for which the “A*0201” value amounted to 0.0490.
With GIELMEVDPI, the “binding to HLA-A2.1 (column 3; no allele head shown for these rows)” value is recorded as <0.0002.
QLVFGIDV returned an A2.1 of 0.
For QLVFGIDVKEA, the “binding to HLA-A2.1 (column 3; no allele head shown for these rows)” value was determined as 0.0001.
Regarding IMPKAGLLI, the “binding to HLA-A2.1 (column 3; no allele head shown for these rows)” value came to 0.0064.
On the same count and under the same terms, the result for CILESLFRAVI reads 0.0030.
With SREEEGPST, the A2.1 was <0.0002.
VIFSKASSSL showed an A2.1 of 0.
Same read-out and setting: then YKHCFPEIF, with <0.0002.
ILESLFRAVI registered an A2.1 of 0.0002.
As to DPTGHSYVL, the A2.1 is reported as <0.0002.
Regarding EIWEELSVM, the “binding to HLA-A2.1 (column 3; no allele head shown for these rows)” value is given as 0.
Turning to ALEAQQEAL, the A2.1 is on record as <0.0003.
As for GIDVKEADPT, the “binding to HLA-A2.1 (column 3; no allele head shown for these rows)” value is 0.
Still for that read-out and setting: then LLIIVLAIIA, with <0.0002.
Turning to CLLAKTCPV [Peptide 1326.01], the “A*0201” value is 0.0400.
For the substance KLLTQDLVQEKYL, the “binding to HLA-A2.1 (column 3; no allele head shown for these rows)” value amounted to 0.0060.
Regarding YMCNSSCMGGM [Peptide 1323.29], the “A*0201” value worked out at 0.0075.
Consider SJPPPGTRV [Peptide 1345.03], for which the “A*0201” value stood at 0.0545.
For the substance GLYDGMEHV [Peptide 1586.08], the negative-log IC50 (pIC50) (commonly the negative decadic logarithm of the IC50, by convention in mol/L) was 6.81.
The substance ILESLFRAV showed an A2.1 of 0.0004.
Turning to IIVLVMIA, the “binding to HLA-A2.1 (column 3; no allele head shown for these rows)” value was determined as 0.0002.
LVFGIELJEV [Peptide 1345.04]: the “A*0201” value is on record as 0.7650.
With ITKKVADLV, the “binding to HLA-A2.1 (column 3; no allele head shown for these rows)” value was 0.
Regarding RAREPVTKA, the “binding to HLA-A2.1 (column 3; no allele head shown for these rows)” value is on record as 0.
Take EVDPIGHLYI: the “binding to HLA-A2.1 (column 3; no allele head shown for these rows)” value was <0.0002.
Take YLEYGRCRTVI: the “binding to HLA-A2.1 (column 3; no allele head shown for these rows)” value was determined as 0.0006.
Regarding VMVTCLGLSV, the “binding to HLA-A2.1 (column 3; no allele head shown for these rows)” value is recorded as 0.30.
Same read-out and setting: the result for IIAREGDCA reads 0.
Consider QRQPSEGSS, for which the A2.1 was <0.0002.
QIMPKTGFLI: the “binding to HLA-A2.1 (column 3; no allele head shown for these rows)” value was 0.0009.
For the substance ELSVMEVYD, the A2.1 was <0.0002.
For the substance RVRFFFPSL, the “binding to HLA-A2.1 (column 3; no allele head shown for these rows)” value was found to be 0.0001.
Same read-out and setting: then IMPKAGLLII, with 0.0015; and LIIVLVMIA, with 0.
With PRKLLTQDL, the A2.1 is <0.0002.
IJIGVLVGV [Peptide 1345.01]: the “A*0201” value is 0.0570.
As for IIVLVMIAM, the “binding to HLA-A2.1 (column 3; no allele head shown for these rows)” value is on record as 0.0007.
On the same count and under the same terms, the result for GIEVVEVVPI reads <0.0002.
